Measurements reported in patent US20190314479A1.

B1: HPV-16 E7 native peptide E7-1 (E7 11-19) (peptide)
peptide: YMLDLQPET
modifications: not checked
B2: HPV-16 E6 native peptide E6-3 (E6 90-99) (peptide)
peptide: QQYNKPLCDL
modifications: not checked

Target: HLA-A2 molecules
Test: T2A2 peptide binding assay to HLA-A2

| Binder | T2A2 Binding |
| --- | --- |
| B1 | 1100 |
| B2 | 1020 |
